From PMC4059916 (2014)
Positions count from the first letter of the chain named. In names and notes the source's numbering stands.

T1: Rab32 1-225 (Q85L), GTP hydrolysis-defective mutant, GST removed (UniProt Q13637 1-225, Q85L)
T1 sequence: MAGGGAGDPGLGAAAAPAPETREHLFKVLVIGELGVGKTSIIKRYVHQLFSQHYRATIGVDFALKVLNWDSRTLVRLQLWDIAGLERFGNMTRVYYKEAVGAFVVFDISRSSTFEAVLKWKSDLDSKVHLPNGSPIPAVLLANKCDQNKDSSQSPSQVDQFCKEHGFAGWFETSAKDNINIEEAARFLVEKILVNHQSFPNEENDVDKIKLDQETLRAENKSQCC

B1: VARP451-640His6 Q509A/Y550A (domain or fragment)
chain: PSVVTPFSRDDRGHTPLHVAAVCGQASLIDLLVSKGAMVNATDYHGATPLHLACQKGYASVTLLLLHYKASAEVQDNNGNTPLHLACTYGHEDCVKALVAYDVESCRLDIGNEKGDTPLHIAARWGYQGVIETLLQNGASTEIQNRLKETPLKCALNSKILSVMEAYHLSFERRQKSSEAPVQSPQRSVD
B2: VARP451-640His6 (first ankyrin repeat domain, ANKRD1), wild type (domain or fragment)
chain: B1 chain with A59Q, A100Y
B3: Rab32 (Q85L/G89T/N90S/V94L) (protein)
chain: T1 sequence with G89T, N90S, V94L
modifications: Construct limits taken from the parent Rab32 1-225 (PDB 4CYM entity 1); Mg2+ and GTP-analogue state (GppCp or GTPgammaS) presumed

Tests used:
Experiment in all cases: ITC
[1] = molecular target: T1, Rab32 1-225 (Q85L), GTP …
[2] = molecular target: Rab32(Q85L) mutated at M91/R93 (Switch-II), GST removed, as used in ITC (UniProt Q13637 1-225, Q85L)
[3] = molecular target: B2

Binder: B1
- Kd [1]: > 300 µM

Binder: B2
- Kd [2]: > 300 µM

Binder: B3
- Kd [3]: 13 µM
